Experimental findings from patent US10159726B2, “Peptides, combination of peptides and scaffolds for use in immunotherapeutic treatment of various cancers” (Immatics Biotechnologies GmbH, priority 2015, dated 2018) are described below.

The target in the assay is HLA-A*02 (Homo sapiens, UniProt P04439, D140Y/D185E/D98H/E176V/E277Q/G131W/G231S/I119V/I121R/I166T/I218V/N151K/N90K/P208A/P217A/Q86G/Q94H/R138H/R169H). Briefly: MHC binding assay, UV-ligand exchange with beta2m ELISA, HLA-A*02. The following applies: peptide exchange yield. The source says:
Candidate peptides for T cell based therapies according to the present invention were further tested for their MHC binding capacity (affinity). The individual peptide-MHC complexes were produced by UV-ligand exchange, where a UV-sensitive peptide is cleaved upon UV-irradiation, and exchanged with the peptide of interest as analyzed. Only peptide candidates that can effectively bind and stabilize the peptide-receptive MHC molecules prevent dissociation of the MHC complexes. To determine the yield of the exchange reaction, an ELISA was performed based on the detection of the light chain (β2m) of stabilized MHC complexes. The assay was performed as generally described in Rodenko et al. (Rodenko et al., 2006).
96 well MAXISorp plates (NUNC) were coated over night with 2 ug/ml streptavidin in PBS at room temperature, washed 4× and blocked for 1 h at 37° C. in 2% BSA containing blocking buffer. […] Peptide-MHC monomers of the UV-exchange reaction were diluted 100 fold in blocking buffer. Samples were incubated for 1 h at 37° C., washed four times, incubated with 2 ug/ml HRP conjugated anti-β2m for 1 h at 37° C., washed again and detected with TMB solution that is stopped with […]. Absorption was measured at 450 nm. Candidate peptides that show a high exchange yield (preferably higher than 50%, most preferred higher than 75%) are generally preferred for a generation and production of antibodies or fragments thereof, and/or T cell receptors or fragments thereof, as they show sufficient avidity to the MHC molecules and prevent dissociation of the MHC complexes.
For orientation: ELISA stands for enzyme-linked immunosorbent assay.

“59 (ALTKILAEL; listed as Homo sapiens) [compound 59]”: the “MHC class I binding score, Peptide exchange” value is “+++ (50%-75% = +++)”.

Take “60 (FLIDTSASM; listed as Homo sapiens) [compound 60]”: the “MHC class I binding score, Peptide exchange” value is listed as “++ (20%-49% = ++)”.

Turning to “61 (HLPDFVKQL; listed as Homo sapiens) [compound 61]”, the “MHC class I binding score, Peptide exchange” value is listed as “++ (20%-49% = ++)”.

Take “62 (SLFNQEVQI; listed as Homo sapiens) [compound 62]”: the “MHC class I binding score, Peptide exchange” value is reported as “+++ (50%-75% = +++)”.

For the substance “63 (TLSSERDFAL; listed as Homo sapiens) [compound 63]”, the “MHC class I binding score, Peptide exchange” value is “+ (<20% = +)”.

As to “64 (GLSSSSYEL; listed as Homo sapiens) [compound 64]”, the “MHC class I binding score, Peptide exchange” value was “++ (20%-49% = ++)”.

Consider “65 (KLDGICWQV; listed as Homo sapiens) [compound 65]”, for which the “MHC class I binding score, Peptide exchange” value was “+++ (50%-75% = +++)”.

With “66 (FITDFYTTV; listed as Homo sapiens) [compound 66]”, the “MHC class I binding score, Peptide exchange” value is listed as “+++ (50%-75% = +++)”.

Regarding “67 (GVIETVTSL; listed as Homo sapiens) [compound 67]”, the “MHC class I binding score, Peptide exchange” value is reported as “++ (20%-49% = ++)”.

In the case of “69 (GIYDGILHSI; listed as Homo sapiens) [compound 69]”, the “MHC class I binding score, Peptide exchange” value was “+++ (50%-75% = +++)”.

For the substance “70 (GLFSQHFNL; listed as Homo sapiens) [compound 70]”, the “MHC class I binding score, Peptide exchange” value is “+++ (50%-75% = +++)”.

On to “71 (GLITVDIAL; listed as Homo sapiens) [compound 71]”, for which the “MHC class I binding score, Peptide exchange” value was “+++ (50%-75% = +++)”.

Take “72 (GMIGFQVLL; listed as Homo sapiens) [compound 72]”: the “MHC class I binding score, Peptide exchange” value is recorded as “+++ (50%-75% = +++)”.

With “74 (ILDETLENV; listed as Homo sapiens) [compound 74]”, the “MHC class I binding score, Peptide exchange” value was “++ (20%-49% = ++)”.

“75 (ILDNVKNLL; listed as Homo sapiens) [compound 75]”: the “MHC class I binding score, Peptide exchange” value was “+++ (50%-75% = +++)”.

As to “76 (ILLDESNFNHFL; listed as Homo sapiens) [compound 76]”, the “MHC class I binding score, Peptide exchange” value is “+++ (50%-75% = +++)”.

As to “77 (IVLSTIASV; listed as Homo sapiens) [compound 77]”, the “MHC class I binding score, Peptide exchange” value was “+++ (50%-75% = +++)”.

With “78 (LLWGHPRVA; listed as Homo sapiens) [compound 78]”, the “MHC class I binding score, Peptide exchange” value is on record as “+++ (50%-75% = +++)”.

Consider “79 (SLVPLQILL; listed as Homo sapiens) [compound 79]”, for which the “MHC class I binding score, Peptide exchange” value is recorded as “++++ (>=75% = ++++)”.

As for “80 (TLDEYLTYL; listed as Homo sapiens) [compound 80]”, the “MHC class I binding score, Peptide exchange” value is on record as “+++ (50%-75% = +++)”.

On to “81 (VLFLGKLLV; listed as Homo sapiens) [compound 81]”, for which the “MHC class I binding score, Peptide exchange” value was “++ (20%-49% = ++)”.

For the substance “82 (VLLRVLIL; listed as Homo sapiens) [compound 82]”, the “MHC class I binding score, Peptide exchange” value is listed as “++ (20%-49% = ++)”.

In the case of “83 (ELLEYLPQL; listed as Homo sapiens) [compound 83]”, the “MHC class I binding score, Peptide exchange” value is given as “+++ (50%-75% = +++)”.

Consider “84 (FLEEEITRV; listed as Homo sapiens) [compound 84]”, for which the “MHC class I binding score, Peptide exchange” value is “+++ (50%-75% = +++)”.

On to “85 (STLDGSLHAV; listed as Homo sapiens) [compound 85]”, for which the “MHC class I binding score, Peptide exchange” value was “+++ (50%-75% = +++)”.

With “87 (YLTEVFLHVV; listed as Homo sapiens) [compound 87]”, the “MHC class I binding score, Peptide exchange” value was “+++ (50%-75% = +++)”.

“88 (ILLNTEDLASL; listed as Homo sapiens) [compound 88]”: the “MHC class I binding score, Peptide exchange” value was “+++ (50%-75% = +++)”.

Take “89 (YLVAHNLLL; listed as Homo sapiens) [compound 89]”: the “MHC class I binding score, Peptide exchange” value was “+++ (50%-75% = +++)”.

For “90 (GAVAEEVLSSI; listed as Homo sapiens) [compound 90]”, the “MHC class I binding score, Peptide exchange” value is “+ (<20% = +)”.

Regarding “91 (SSLEPQIQPV; listed as Homo sapiens) [compound 91]”, the “MHC class I binding score, Peptide exchange” value was “+ (<20% = +)”.

As for “92 (LLRGPPVARA; listed as Homo sapiens) [compound 92]”, the “MHC class I binding score, Peptide exchange” value is “++ (20%-49% = ++)”.

Turning to “93 (SLLTQPIFL; listed as Homo sapiens) [compound 93]”, the “MHC class I binding score, Peptide exchange” value is “+++ (50%-75% = +++)”.

For “321 (SLWFKPEEL; listed as Homo sapiens) [compound 321]”, the “MHC class I binding score, Peptide exchange” value is “+++ (50%-75% = +++)”.

Take “323 (ILSVVNSQL; listed as Homo sapiens) [compound 323]”: the “MHC class I binding score, Peptide exchange” value is recorded as “+++ (50%-75% = +++)”.

On to “324 (AIFDFCPSV; listed as Homo sapiens) [compound 324]”, for which the “MHC class I binding score, Peptide exchange” value is “++++ (>=75% = ++++)”.

With “325 (RLLPKVQEV; listed as Homo sapiens) [compound 325]”, the “MHC class I binding score, Peptide exchange” value is recorded as “++ (20%-49% = ++)”.

For “326 (SLLPLVWKI; listed as Homo sapiens) [compound 326]”, the “MHC class I binding score, Peptide exchange” value was “+++ (50%-75% = +++)”.

Regarding “327 (SIGDIFLKY; listed as Homo sapiens) [compound 327]”, the “MHC class I binding score, Peptide exchange” value is “+++ (50%-75% = +++)”.

For the substance “328 (SVDSAPAAV; listed as Homo sapiens) [compound 328]”, the “MHC class I binding score, Peptide exchange” value is reported as “++ (20%-49% = ++)”.

With “329 (FAWEPSFRDQV; listed as Homo sapiens) [compound 329]”, the “MHC class I binding score, Peptide exchange” value is on record as “++ (20%-49% = ++)”.

Consider “330 (FLWPKEVEL; listed as Homo sapiens) [compound 330]”, for which the “MHC class I binding score, Peptide exchange” value is “+++ (50%-75% = +++)”.

Consider “331 (AIWKELISL; listed as Homo sapiens) [compound 331]”, for which the “MHC class I binding score, Peptide exchange” value is given as “+++ (50%-75% = +++)”.

Take “333 (GTFLEGVAK; listed as Homo sapiens) [compound 333]”: the “MHC class I binding score, Peptide exchange” value is “+++ (50%-75% = +++)”.

Consider “334 (GRADALRVL; listed as Homo sapiens) [compound 334]”, for which the “MHC class I binding score, Peptide exchange” value is reported as “+++ (50%-75% = +++)”.

For “335 (VLLAAGPSAA; listed as Homo sapiens) [compound 335]”, the “MHC class I binding score, Peptide exchange” value is “++ (20%-49% = ++)”.

As for “336 (GLMDGSPHFL; listed as Homo sapiens) [compound 336]”, the “MHC class I binding score, Peptide exchange” value is given as “++ (20%-49% = ++)”.

In the case of “337 (KVLGKIEKV; listed as Homo sapiens) [compound 337]”, the “MHC class I binding score, Peptide exchange” value is on record as “+++ (50%-75% = +++)”.

For “338 (LLYDGKLSSA; listed as Homo sapiens) [compound 338]”, the “MHC class I binding score, Peptide exchange” value is “++ (20%-49% = ++)”.

In the case of “339 (VLGPGPPPL; listed as Homo sapiens) [compound 339]”, the “MHC class I binding score, Peptide exchange” value is recorded as “++ (20%-49% = ++)”.

Consider “340 (SVAKTILKR; listed as Homo sapiens) [compound 340]”, for which the “MHC class I binding score, Peptide exchange” value was “++ (20%-49% = ++)”.
